Among the data in US20220380463A1 (Adimab, published 2022) are koff values, retold here.

Substitutions are numbered along the chain they refer to.

First the molecules themselves.
B1: SAD10318_P03_A08 (ADI-57283) (antibody, V domains shown)
VH: QVQLVQSGAEVKKPGASVKVSCKASGFNIKDYYMHWVRQAPGQRLEWMGWIDLENANTIYDAKFQGRVTITRDTSASTAYMELSSLRSEDTAVYYCARDAYGRYHYDHWGQGTLVTVSS
VL: DIVMTQSPDSLAVSLGERATINCKSSQSLLNARTGHNHLAWYQQKPGQPPKLLIYWASTRESGVPDRFSGSGSGTDFTLTISSLQAEDVAVYYCKQSYSRRTFGGGTKVEIK
notes: IgG; also called Ab195
B2: SAD10319_P01_B03 (ADI-57305) (antibody, V domains shown)
VH: QVQLVQSGAEVKKPGASVKVSCKASGYTFNAYAMHWVRQAPGQRLEWMGWINPDTGATTYSQKFQGRVTITRDTSASTAYMELSSLRSEDTAVYYCARDAYHHYFYDVWGQGTLVTVSS
VL: B1 VL with H36K, H38Y
notes: IgG; also called Ab243
B3: SAD10319_P02_D05 (ADI-57316) (antibody, V domains shown)
VH: B2 VH with A31D, E46A, N52D, P53A, D54G, A57N, T59Y, Y101H, H102G
VL: B1 VL with H36K, H38Y
notes: IgG; also called Ab258
B4: SAD10319_P02_A05 (ADI-48629) (antibody, V domains shown)
VH: B2 VH with N30D, A31S, D54N, A100H, H102G
VL: B1 VL with H36K, H38Y
notes: IgG; also called Ab255
B5: SAD10319_P01_A02 (ADI-57301) (antibody, V domains shown)
VH: B2 VH with N30T, A31E, A33E, D54L, A57N, T59K, A100H, H102G
VL: B1 VL with H36K, H38Y
notes: IgG; also called Ab236
B6: SAD10318_P03_G09 (ADI-57287) (antibody, V domains shown)
VH: B1 VH with A100H, R103H, H105F, H108V
VL: B1 VL with R33H, H38Y, K95H, R100H
notes: IgG; also called Ab209
B7: SAD10318_P03_F09 (ADI-57286) (antibody, V domains shown)
VH: B1 VH with R103H, H108V
VL: B1 VL with R33H, T34P, H36K, H38Y, K95H, S99H
notes: IgG; also called Ab208
B8: SAD10319_P01_F01 (ADI-57299) (antibody, V domains shown)
VH: B2 VH with N30Q, A31S, A33D, E46Q, D54T, A57N, T59V, H102G, H103R
VL: B1 VL with H36K, H38Y
notes: IgG; also called Ab233
B9: SAD10319_P02_B05 (ADI-57314) (antibody, V domains shown)
VH: B2 VH with N30A, A31D, W50S, P53A, D54G, A57N, T59Y, H102G
VL: B1 VL with H36K, H38Y
notes: IgG; also called Ab256
B10: SAD10319_P02_A04 (ADI-57307) (antibody, V domains shown)
VH: B2 VH with N30D, A31S, A33S, T59D, A100H, H102G
VL: B1 VL with H36K, H38Y
notes: IgG; also called Ab247
B11: SAD10319_P01_H02 (ADI-48625) (antibody, V domains shown)
VH: B2 VH with N30T, A31D, D54S, T59V
VL: B1 VL with H36K, H38Y
notes: IgG; also called Ab242
B12: SAD10318_P04_H12 (ADI-57297) (antibody, V domains shown)
VH: B1 VH with Y101H, H105F, Y106H, H108V
VL: B1 VL with R33H, H36K, K95H, R100H
notes: IgG; also called Ab228
B13: SAD10319_P01_C01 (ADI-48621 and ADI-48636) (antibody, V domains shown)
VH: B2 VH with N30T, A31D, A33D, N52D, P53A, D54G, A57L, T59K, A100H, H102G
VL: B1 VL with H36K, H38Y
notes: IgG; also called Ab230
B14: SAD10319_P01_F02 (ADI-48624) (antibody, V domains shown)
VH: QVQLVQSGAEVKKPGASVKVSCKASGYTFESYDMHWVRQAPGQRLEWMGWIDAGTGNTKYSQKFQGRVTITADESTSTAYMELSSLRSEDTAVYYCARDHYGHYFYDVWGQGTLVTVSS
VL: B1 VL with H36K, H38Y
notes: IgG; also called Ab241
B15: SAD10319_P01_D02 (ADI-57303) (antibody, V domains shown)
VH: QVQLVQSGAEVKKPGASVKVSCKASGYTFTEYDMHWVRQAPGQRPEWMGWIDAGTGATVYSQKFQGRVTITRDTSASTAYMELSSLRSEDTAVYYCARDAYGRYFYDHWGQGTLVTVSS
VL: B1 VL with H36K, H38Y
notes: IgG; also called Ab239
B16: SAD10319_P01_E01 (ADI-57298) (antibody, V domains shown)
VH: B2 VH with N30D, N52D, P53A, D54G, T59A, A100H, H102G
VL: B1 VL with H36K, H38Y
notes: IgG; also called Ab232
B17: SAD10318_P03_G08 (ADI-57285) (antibody, V domains shown)
VH: B1 VH with A100H, G102H, H105F, H108V
VL: B1 VL with N31H, H36K, Y98H, R100H
notes: IgG; also called Ab201
B18: SAD10318_P04_G12 (ADI-57296) (antibody, V domains shown)
VH: B1 VH with R103H, H108V
VL: B1 VL with R33H, H36K
notes: IgG; also called Ab227
B19: SAD10319_P02_H04 (ADI-57313) (antibody, V domains shown)
VH: B2 VH with N30T, A31S, T59K, Y101H, H102G
VL: B1 VL with H36K, H38Y
notes: IgG; also called Ab254
B20: SAD10318_P04_G11 (ADI-57294) (antibody, V domains shown)
VH: B1 VH with T74A, G102H, H108V
VL: B1 VL with R33H, H36K, Y98H
notes: IgG; also called Ab222
B21: SAD10318_P04_F11 (ADI-57293) (antibody, V domains shown)
VH: B1 VH with I29T, Y101H, H108V
VL: B1 VL
notes: IgG; also called Ab221
B22: SAD10319_P02_C04 (ADI-57309) (antibody, V domains shown)
VH: B2 VH with N30E, A31S, A33S, D54A, T59D
VL: B1 VL with H36K, H38Y
notes: IgG; also called Ab250
B23: SAD10319_P01_C02 (ADI-57302) (antibody, V domains shown)
VH: B2 VH with N30T, A31E, A33N, D54L, A57N, T59L
VL: B1 VL with H36K, H38Y
notes: IgG; also called Ab238
B24: SAD10319_P01_D01 (ADI-48622) (antibody, V domains shown)
VH: B14 VH with E30K, A72R, E74T, T76A, H100A, H103R
VL: B1 VL with H36K, H38Y
notes: IgG; also called Ab231
B25: SAD10318_P04_E11 (ADI-57292) (antibody, V domains shown)
VH: B1 VH with R103H, H105F
VL: B1 VL with K95H, R100H
notes: IgG; also called Ab220
B26: SAD10318_P04_H10 (ADI-57290) (antibody, V domains shown)
VH: B1 VH with A100H, R103H, H105F, H108V
VL: B1 VL with R33H, H36K
notes: IgG; also called Ab214
B27: SAD10319_P02_G05 (ADI-57318) (antibody, V domains shown)
VH: B2 VH with N30T, A31Q, A33T, W50S, N52D, P53A, D54G, T59K
VL: B1 VL with H36K, H38Y
notes: IgG; also called Ab6
B28: SAD10319_P02_F05 (ADI-57317) (antibody, V domains shown)
VH: B2 VH with A31N, N52D, P53A, D54G, A57N, T59D, Y101H, H103R
VL: B1 VL with H36K, H38Y
notes: IgG; also called Ab5
B29: SAD10319_P01_A01 (ADI-48619) (antibody, V domains shown)
VH: B2 VH with N30A, A31S, A57N, T59V
VL: B1 VL with H36K, H38Y
notes: IgG; also called Ab229
B30: SAD10319_P02_B04 (ADI-57308) (antibody, V domains shown)
VH: B2 VH with N30A, A31D, D54G, A57S, T59K, H102G, V108H
VL: B1 VL with H36K, H38Y
notes: IgG; also called Ab249
B31: SAD10319_P01_C03 (ADI-48626) (antibody, V domains shown)
VH: B2 VH with N30T, A31D, A33D, N52D, D54Y, T59K, H102G
VL: B1 VL with H36K, H38Y
notes: IgG; also called Ab244
B32: SAD10318_P04_E10 (ADI-57288) (antibody, V domains shown)
VH: B1 VH
VL: DIVMTQSPDSLAVSLGERATINCKSSQSLLNARTGHNYLAWYQQKPGQPPKLLISGSTRESGVPDRFSGSGSGTDFTLTISSLQAEDVAVYYCHQSYHRRTFGGGTKVEIK
notes: IgG; also called Ab212
B33: SAD10319_P01_D03 (ADI-57306) (antibody, V domains shown)
VH: B2 VH with N30T, A31S, A33N, N52D, P53A, D54G, T59H
VL: B1 VL with H36K, H38Y
notes: IgG; also called Ab245
B34: SAD10319_P01_G01 (ADI-57300) (antibody, V domains shown)
VH: B15 VH with E31S, Y32A, P45L, E46Q, W47P, D52N, V59K, S77N, H108V
VL: B1 VL with H36K, H38Y
notes: IgG; ADI-57300 is also printed for Ab28; also called Ab234
B35: SAD10318_P04_D10 (ADI-48613) (antibody, V domains shown)
VH: B1 VH with R103H, H108V
VL: B1 VL with N31H, H36K
notes: IgG; also called Ab211
B36: SAD10318_P03_B08 (ADI-57284) (antibody, V domains shown)
VH: B1 VH with A100H, G102H, H105F, H108V
VL: B1 VL with R33H, H38Y, K95H, R100H
notes: IgG; also called Ab196
B37: SAD10318_P04_F10 (ADI-57289) (antibody, V domains shown)
VH: B1 VH with G102H, H108V
VL: B1 VL with G35H, H36K
notes: IgG; also called Ab213
B38: SAD10319_P02_D04 (ADI-57310) (antibody, V domains shown)
VH: B14 VH with E30T, D33A, E46Q, K59Y, A72R, E74T, T76A, H100A, Y101H
VL: B1 VL with H36K, H38Y
notes: IgG; also called Ab251
B39: SAD10319_P02_H05 (ADI-57319) (antibody, V domains shown)
VH: B15 VH with E31Q, D33S, P45L, D52N, A57D, A100H, Y101H, H108V
VL: B1 VL with L30F, H36K, H38Y
notes: IgG; also called Ab7
B40: SAD10319_P02_C05 (ADI-57315) (antibody, V domains shown)
VH: B2 VH with N30T, A31D, A33N, D54L, A57T, T59K
VL: B1 VL with H36K, H38Y
notes: IgG; also called Ab257

This test deals with T1, Cynomolgus CD3εδ Fc heterodimer (Cy CD3ε Fc / CD3δ Fc-HIS) (cynomolgus, UniProt Q95LI8 22-100).
T1 chain 1: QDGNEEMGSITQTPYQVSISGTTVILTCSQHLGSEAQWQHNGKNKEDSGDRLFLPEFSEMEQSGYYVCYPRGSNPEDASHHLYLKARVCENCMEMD
T1 chain 2: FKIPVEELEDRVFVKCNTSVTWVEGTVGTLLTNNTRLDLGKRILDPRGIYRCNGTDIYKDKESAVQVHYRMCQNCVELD
The test can be described thus: BLI (Octet), IgG on AHC sensor, pH 6.0. In general terms: In BLI a coated tip is dipped into the sample, and binding shifts an interference pattern.
As for B1, the koff (usually the rate constant with which the complex falls apart) was 0.006 s⁻¹.
As for B2, the figure is 0.0245 s⁻¹; as for B3, 0.00296 s⁻¹.
As for B4, the figure is 0.0269 s⁻¹; as for B5, 0.0165 s⁻¹; as for B6, 0.00559 s⁻¹.
The same measure for B7: 0.00139 s⁻¹.
As for B8, the koff came to 0.0179 s⁻¹. Compared with the last molecule, the koff is about 13-fold higher.
The same measure for B9: 0.0388 s⁻¹.
The same measure for B10: 0.0284 s⁻¹.
In the case of B11, the koff was 0.0314 s⁻¹.
As for B12, the figure is 0.00254 s⁻¹; as for B13, 0.00402 s⁻¹.
On to B14, for which the koff amounted to 0.00522 s⁻¹. The koff values of the last two molecules are within 1.5-fold of each other.
As for B15, the figure is 0.00686 s⁻¹; as for B16, 0.0281 s⁻¹.
As for B17, the figure is 0.00544 s⁻¹; as for B18, 0.0025 s⁻¹; as for B19, 0.00313 s⁻¹.
As for B20, the figure is 0.00215 s⁻¹; as for B21, 0.00183 s⁻¹; as for B22, 0.0215 s⁻¹.
B23 gave a koff of 0.0251 s⁻¹.
The same measure for B24: 0.00946 s⁻¹; for B25: 0.00256 s⁻¹; for B26: 0.00284 s⁻¹.
The same measure for B27: 0.00475 s⁻¹; for B28: 0.0262 s⁻¹.
As for B29, the figure is 0.0328 s⁻¹; as for B30, 0.0203 s⁻¹.
In the case of B31, the koff is 0.0196 s⁻¹.
The same measure for B32: 0.00245 s⁻¹; for B33: 0.00221 s⁻¹; for B34: 0.00249 s⁻¹.
The same measure for B35: 0.00251 s⁻¹; for B36: 0.00303 s⁻¹; for B37: 0.00436 s⁻¹.
As for B38, the figure is 0.00322 s⁻¹.
On to B39, for which the koff is 0.019 s⁻¹.
The same measure for B40: 0.00697 s⁻¹.
